Test results taken from patent publication US20110311550A1 (Scripps Research, published 2011).

Key:
Assay in all cases: ELISA, lectin-captured E1E2 lysate, Ab 1 ug/ml;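 also: E1E2 captured on Galanthus nivalis lectin-coated plates, bound test antibody read out by an HRP-linked secondary antibody and TMB colour development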
[1] = target: E1E2 complex (H77) with E1 mutation Y192A (HCV genotype 1a, isolate H77, UniProt P27958 193-383; P27958 384-746)
[2] = target: E1E2 complex (H77) with E1 mutation Q193A (HCV genotype 1a, isolate H77, UniProt P27958 192-383; P27958 384-746)
[3] = target: E1E2 complex (H77) with E1 mutation R195A (HCV genotype 1a, isolate H77, UniProt P27958 192-383; P27958 384-746)
[4] = target: E1E2 complex (H77) with E1 mutation T204A (HCV genotype 1a, isolate H77, UniProt P27958 192-383; P27958 384-746)
[5] = target: E1E2 complex (H77) with E1 mutation D206A (HCV genotype 1a, isolate H77, UniProt P27958 192-383; P27958 384-746)
[6] = target: E1E2 complex (H77) with E1 mutation P224A (HCV genotype 1a, isolate H77, UniProt P27958 192-383; P27958 384-746)
[7] = target: E1E2 complex (H77) with E1 mutation T255A (HCV genotype 1a, isolate H77, UniProt P27958 192-383; P27958 384-746)
[8] = target: E1E2 complex (H77) with E1 mutation S273A (HCV genotype 1a, isolate H77, UniProt P27958 192-383; P27958 384-746)
[9] = target: E1E2 complex (H77) with E1 mutation Y276A (HCV genotype 1a, isolate H77, UniProt P27958 192-383; P27958 384-746)
[10] = target: E1E2 complex (H77) with E1 mutation G282A (HCV genotype 1a, isolate H77, UniProt P27958 192-383; P27958 384-746)
[11] = target: E1E2 complex (H77) with E1 mutation N196A/N209A (HCV genotype 1a, isolate H77, UniProt P27958 192-383; P27958 384-746)
[12] = target: E1E2 complex (H77) with E1 mutation F291A (HCV genotype 1a, isolate H77, UniProt P27958 192-383; P27958 384-746)
[13] = target: E1E2 complex (H77) with E1 mutation Q302A (HCV genotype 1a, isolate H77, UniProt P27958 192-383; P27958 384-746)
[14] = target: E1E2 complex (H77) with E1 mutation S307A (HCV genotype 1a, isolate H77, UniProt P27958 192-383; P27958 384-746)
[15] = target: E1E2 complex (H77) with E1 mutation G315A (HCV genotype 1a, isolate H77, UniProt P27958 192-383; P27958 384-746)
[16] = target: E1E2 complex (H77) with E1 mutation R317A (HCV genotype 1a, isolate H77, UniProt P27958 192-383; P27958 384-746)
[17] = target: E1E2 complex (H77) with E1 mutation W320A (HCV genotype 1a, isolate H77, UniProt P27958 192-383; P27958 384-746)
[18] = target: E1E2 complex (H77) with E1 mutation M323A (HCV genotype 1a, isolate H77, UniProt P27958 192-383; P27958 384-746)
[19] = target: E1E2 complex (H77) with E1 mutation S327A (HCV genotype 1a, isolate H77, UniProt P27958 192-383; P27958 384-746)
[20] = target: E1E2 complex (H77) with E1 mutation P328A (HCV genotype 1a, isolate H77, UniProt P27958 192-383; P27958 384-746)
[21] = target: E1E2 complex (H77) with E1 mutation T329A (HCV genotype 1a, isolate H77, UniProt P27958 192-383; P27958 384-746)
[22] = target: E1E2 complex (H77) with E1 mutation N196A/N325A (HCV genotype 1a, isolate H77, UniProt P27958 192-383; P27958 384-746)

B1: N4 IgG (antibody, V domains shown)
VH: VQLLEQSGPEVKKPGDSLRISCKMSGDSLVTTWIGWVRQKPGQGLEWMGIINPGDSSTNIYPGDSATRYGPSFQGQVTISIDKSTSTAYLQWNNVKASDTGIYYCARHVPVPISGTFLWREREMHDFGYFDDWGQGTLVIVSS
VL: ELTLTQSPGTLSLSPGERATLSCRASQSVSNNYLAWYQQKPGQAPRLLIYGASSRATGIPDRFSGSGSGTGFTLIISRLEPEDFAVYYCQQYGSSSITFGQGTRLEIKR
notes: also called IgG N4
Binding relative to wt (%) [1]: 122% | Binding relative to wt (%) [2]: 117% | Binding relative to wt (%) [3]: 121% | Binding relative to wt (%) [4]: 24% | Binding relative to wt (%) [5]: 17% | Binding relative to wt (%) [6]: 104% | Binding relative to wt (%) [7]: 96% | Binding relative to wt (%) [8]: 70% | Binding relative to wt (%) [9]: 103% | Binding relative to wt (%) [10]: 128% | Binding relative to wt (%) [11]: 21% | Binding relative to wt (%) [12]: 131% | Binding relative to wt (%) [13]: 6% | Binding relative to wt (%) [14]: 58% | Binding relative to wt (%) [15]: 87% | Binding relative to wt (%) [16]: 98% | Binding relative to wt (%) [17]: 121% | Binding relative to wt (%) [18]: 99% | Binding relative to wt (%) [19]: 69% | Binding relative to wt (%) [20]: 127% | Binding relative to wt (%) [21]: 114% | Binding relative to wt (%) [22]: 54%
